Source: US20080213281A1, “Butyrylcholinesterase Variants that Alter the Activity of Chemotherapeutic Agents” (priority 2002, published 2008)
“Also recorded” adds a separate entry of the source.

Experiment: HPLC assay of CPT-11 conversion to SN-38 by conditioned media of transiently expressed BChE variants
Format: biochemical
Conditions: for SN-38 formation from CPT-11 (in words): conditioned media, HPLC, compared to mock or wild-type; for Fold improvement in CPT-11 conversion: compared to wild-type butyrylcholinesterase, conditioned media exposed to 20 mM CPT-11 for 72 hours at 37° C., conservative values
Protocol: Butyrylcholinesterase variants were assayed for CPT-11 conversion activity using fluorescent High Performance Liquid Chromotography (HPLC) detection of SN-38 formation as described in Dodds and Rivory, Mol. Pharmacol. 56:1346-1353 (1999), which is incorporated herein by reference. Briefly, conditioned media from transiently expressed BChE variants were exposed to 20 mM CPT-11 for 72 hours at 37° C. and analyzed by HPLC for SN-38 formation (peak at about 4 minutes column retention time).

B1: F227A (protein)
chain: EDDIIIATKNGKVRGMNLTVFGGTVTAFLGIPYAQPPLGRLRFKKPQSLTKWSDIWNATKYANSCCQNIDQSFPGFHGSEMWNPNTDLSEDCLYLNVWIPAPKPKNATVLIWIYGGGFQTGTSSLHVYDGKFLARVERVIVVSMNYRVGALGFLALPGNPEAPGNMGLFDQQLALQWVQKNIAAFGGNPKSVTLFGESAGAASVSLHLLSPGSHSLFTRAILQSGSXNAPWAVTSLYEARNRTLNLAKLTGCSRENETEIIKCLRNKDPQEILLNEAFVVPYGTPLSVNFGPTVDGDFLTDMPDILLELGQFKKTQILVGVNKDEGTAFLVYGAPGFSKDNNSIITRKEFQEGLKIFFPGVSEFGKESILFHYTDWVDDQRPENYREALGDVVGDYNFICPALEFTKKFSEWGNNAFFYYFEHRSSKLPWPEWMGVMHGYEIEFVFGLPLERRDNYTKAEEILSRSIVKRWANFAKYGNPNETQNNSTSWPVFKSTEQKYLTLNTESTRIMTKLRAQQCRFWTSFFPKVLEMTGNIDEAEWEWKAGFHRWNNYMMDWKNQFNDYTSKKESCVGL
modifications: Synthetic butyrylcholinesterase variant; VARIANT (227)..(227): Xaa = Ala
SN-38 formation from CPT-11 (in words): produced a small amount of SN-38; also recorded: increased CPT-11 conversion to SN-38

B2: F227A/L286H (protein)
chain: EDDIIIATKNGKVRGMNLTVFGGTVTAFLGIPYAQPPLGRLRFKKPQSLTKWSDIWNATKYANSCCQNIDQSFPGFHGSEMWNPNTDLSEDCLYLNVWIPAPKPKNATVLIWIYGGGFQTGTSSLHVYDGKFLARVERVIVVSMNYRVGALGFLALPGNPEAPGNMGLFDQQLALQWVQKNIAAFGGNPKSVTLFGESAGAASVSLHLLSPGSHSLFTRAILQSGSXNAPWAVTSLYEARNRTLNLAKLTGCSRENETEIIKCLRNKDPQEILLNEAFVVPYGTPHSVNFGPTVDGDFLTDMPDILLELGQFKKTQILVGVNKDEGTAFLVYGAPGFSKDNNSIITRKEFQEGLKIFFPGVSEFGKESILFHYTDWVDDQRPENYREALGDVVGDYNFICPALEFTKKFSEWGNNAFFYYFEHRSSKLPWPEWMGVMHGYEIEFVFGLPLERRDNYTKAEEILSRSIVKRWANFAKYGNPNETQNNSTSWPVFKSTEQKYLTLNTESTRIMTKLRAQQCRFWTSFFPKVLEMTGNIDEAEWEWKAGFHRWNNYMMDWKNQFNDYTSKKESCVGL
modifications: Synthetic butyrylcholinesterase variant; VARIANT (227)..(227): Xaa = Ala; VARIANT (286)..(286): L286H
Fold improvement in CPT-11 conversion: >35 fold
SN-38 formation from CPT-11 (in words): increased CPT-11 conversion to SN-38

B3: F227A/T284A (protein)
chain: EDDIIIATKNGKVRGMNLTVFGGTVTAFLGIPYAQPPLGRLRFKKPQSLTKWSDIWNATKYANSCCQNIDQSFPGFHGSEMWNPNTDLSEDCLYLNVWIPAPKPKNATVLIWIYGGGFQTGTSSLHVYDGKFLARVERVIVVSMNYRVGALGFLALPGNPEAPGNMGLFDQQLALQWVQKNIAAFGGNPKSVTLFGESAGAASVSLHLLSPGSHSLFTRAILQSGSXNAPWAVTSLYEARNRTLNLAKLTGCSRENETEIIKCLRNKDPQEILLNEAFVVPYGXPLSVNFGPTVDGDFLTDMPDILLELGQFKKTQILVGVNKDEGTAFLVYGAPGFSKDNNSIITRKEFQEGLKIFFPGVSEFGKESILFHYTDWVDDQRPENYREALGDVVGDYNFICPALEFTKKFSEWGNNAFFYYFEHRSSKLPWPEWMGVMHGYEIEFVFGLPLERRDNYTKAEEILSRSIVKRWANFAKYGNPNETQNNSTSWPVFKSTEQKYLTLNTESTRIMTKLRAQQCRFWTSFFPKVLEMTGNIDEAEWEWKAGFHRWNNYMMDWKNQFNDYTSKKESCVGL
modifications: Synthetic butyrylcholinesterase variant; VARIANT (227)..(227): Xaa = Ala; VARIANT (284)..(284): Xaa = Ala
Fold improvement in CPT-11 conversion: >7 fold
SN-38 formation from CPT-11 (in words): increased CPT-11 conversion to SN-38

B4: F227A/L286S (protein)
chain: EDDIIIATKNGKVRGMNLTVFGGTVTAFLGIPYAQPPLGRLRFKKPQSLTKWSDIWNATKYANSCCQNIDQSFPGFHGSEMWNPNTDLSEDCLYLNVWIPAPKPKNATVLIWIYGGGFQTGTSSLHVYDGKFLARVERVIVVSMNYRVGALGFLALPGNPEAPGNMGLFDQQLALQWVQKNIAAFGGNPKSVTLFGESAGAASVSLHLLSPGSHSLFTRAILQSGSXNAPWAVTSLYEARNRTLNLAKLTGCSRENETEIIKCLRNKDPQEILLNEAFVVPYGTPSSVNFGPTVDGDFLTDMPDILLELGQFKKTQILVGVNKDEGTAFLVYGAPGFSKDNNSIITRKEFQEGLKIFFPGVSEFGKESILFHYTDWVDDQRPENYREALGDVVGDYNFICPALEFTKKFSEWGNNAFFYYFEHRSSKLPWPEWMGVMHGYEIEFVFGLPLERRDNYTKAEEILSRSIVKRWANFAKYGNPNETQNNSTSWPVFKSTEQKYLTLNTESTRIMTKLRAQQCRFWTSFFPKVLEMTGNIDEAEWEWKAGFHRWNNYMMDWKNQFNDYTSKKESCVGL
modifications: Synthetic butyrylcholinesterase variant; VARIANT (227)..(227): Xaa = Ala; VARIANT (286)..(286): L286S
Fold improvement in CPT-11 conversion: >50 fold
Fold improvement in CPT-11 conversion (listed as F227A/L268S): ≥ 50 fold
SN-38 formation from CPT-11 (in words): significant conversion; also recorded: increased CPT-11 conversion to SN-38

B5: F227A/S287P (protein)
chain: EDDIIIATKNGKVRGMNLTVFGGTVTAFLGIPYAQPPLGRLRFKKPQSLTKWSDIWNATKYANSCCQNIDQSFPGFHGSEMWNPNTDLSEDCLYLNVWIPAPKPKNATVLIWIYGGGFQTGTSSLHVYDGKFLARVERVIVVSMNYRVGALGFLALPGNPEAPGNMGLFDQQLALQWVQKNIAAFGGNPKSVTLFGESAGAASVSLHLLSPGSHSLFTRAILQSGSANAPWAVTSLYEARNRTLNLAKLTGCSRENETEIIKCLRNKDPQEILLNEAFVVPYGTPLXVNFGPTVDGDFLTDMPDILLELGQFKKTQILVGVNKDEGTAFLVYGAPGFSKDNNSIITRKEFQEGLKIFFPGVSEFGKESILFHYTDWVDDQRPENYREALGDVVGDYNFICPALEFTKKFSEWGNNAFFYYFEHRSSKLPWPEWMGVMHGYEIEFVFGLPLERRDNYTKAEEILSRSIVKRWANFAKYGNPNETQNNSTSWPVFKSTEQKYLTLNTESTRIMTKLRAQQCRFWTSFFPKVLEMTGNIDEAEWEWKAGFHRWNNYMMDWKNQFNDYTSKKESCVGL
modifications: Synthetic butyrylcholinesterase variant; VARIANT (227)..(227): F227A; VARIANT (287)..(287): Xaa = Pro
Fold improvement in CPT-11 conversion: >6 fold
SN-38 formation from CPT-11 (in words): increased CPT-11 conversion to SN-38

B6: F227A/L286Q (protein)
chain: EDDIIIATKNGKVRGMNLTVFGGTVTAFLGIPYAQPPLGRLRFKKPQSLTKWSDIWNATKYANSCCQNIDQSFPGFHGSEMWNPNTDLSEDCLYLNVWIPAPKPKNATVLIWIYGGGFQTGTSSLHVYDGKFLARVERVIVVSMNYRVGALGFLALPGNPEAPGNMGLFDQQLALQWVQKNIAAFGGNPKSVTLFGESAGAASVSLHLLSPGSHSLFTRAILQSGSXNAPWAVTSLYEARNRTLNLAKLTGCSRENETEIIKCLRNKDPQEILLNEAFVVPYGTPQSVNFGPTVDGDFLTDMPDILLELGQFKKTQILVGVNKDEGTAFLVYGAPGFSKDNNSIITRKEFQEGLKIFFPGVSEFGKESILFHYTDWVDDQRPENYREALGDVVGDYNFICPALEFTKKFSEWGNNAFFYYFEHRSSKLPWPEWMGVMHGYEIEFVFGLPLERRDNYTKAEEILSRSIVKRWANFAKYGNPNETQNNSTSWPVFKSTEQKYLTLNTESTRIMTKLRAQQCRFWTSFFPKVLEMTGNIDEAEWEWKAGFHRWNNYMMDWKNQFNDYTSKKESCVGL
modifications: Synthetic butyrylcholinesterase variant; VARIANT (227)..(227): Xaa = Ala; VARIANT (286)..(286): L286Q
Fold improvement in CPT-11 conversion: >10 fold
SN-38 formation from CPT-11 (in words): increased CPT-11 conversion to SN-38

B7: F227A/L286W (protein)
chain: EDDIIIATKNGKVRGMNLTVFGGTVTAFLGIPYAQPPLGRLRFKKPQSLTKWSDIWNATKYANSCCQNIDQSFPGFHGSEMWNPNTDLSEDCLYLNVWIPAPKPKNATVLIWIYGGGFQTGTSSLHVYDGKFLARVERVIVVSMNYRVGALGFLALPGNPEAPGNMGLFDQQLALQWVQKNIAAFGGNPKSVTLFGESAGAASVSLHLLSPGSHSLFTRAILQSGSANAPWAVTSLYEARNRTLNLAKLTGCSRENETEIIKCLRNKDPQEILLNEAFVVPYGTPWSVNFGPTVDGDFLTDMPDILLELGQFKKTQILVGVNKDEGTAFLVYGAPGFSKDNNSIITRKEFQEGLKIFFPGVSEFGKESILFHYTDWVDDQRPENYREALGDVVGDYNFICPALEFTKKFSEWGNNAFFYYFEHRSSKLPWPEWMGVMHGYEIEFVFGLPLERRDNYTKAEEILSRSIVKRWANFAKYGNPNETQNNSTSWPVFKSTEQKYLTLNTESTRIMTKLRAQQCRFWTSFFPKVLEMTGNIDEAEWEWKAGFHRWNNYMMDWKNQFNDYTSKKESCVGL
modifications: Synthetic butyrylcholinesterase variant; VARIANT (227)..(227): F227A; VARIANT (286)..(286): L286W
Fold improvement in CPT-11 conversion: >42 fold
SN-38 formation from CPT-11 (in words): increased CPT-11 conversion to SN-38
